Assay results as given in patent US20190276496A1 (FUNDACI N PARA LA INVESTIGACI N M DICA APLICADA, published 2019).
[ ]: non-standard residue; d: D form.

T1: Foxp3 in murine CD25+ Treg cells (mouse, UniProt Q99JB6 1-417)
T1 sequence (looked up): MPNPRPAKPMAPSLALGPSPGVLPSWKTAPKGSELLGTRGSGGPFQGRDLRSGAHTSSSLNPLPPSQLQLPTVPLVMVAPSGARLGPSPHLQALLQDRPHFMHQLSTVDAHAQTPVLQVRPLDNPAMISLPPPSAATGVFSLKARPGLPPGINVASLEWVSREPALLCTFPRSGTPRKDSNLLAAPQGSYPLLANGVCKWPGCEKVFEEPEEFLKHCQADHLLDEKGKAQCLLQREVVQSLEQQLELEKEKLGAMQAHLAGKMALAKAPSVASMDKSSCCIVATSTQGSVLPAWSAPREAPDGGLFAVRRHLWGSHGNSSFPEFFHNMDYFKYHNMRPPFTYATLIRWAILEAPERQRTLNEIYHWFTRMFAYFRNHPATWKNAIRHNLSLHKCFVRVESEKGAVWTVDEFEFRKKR

B1: peptide of SEQ ID NO: 39 (peptide)
peptide: Ac-GRDFQ[dA]FRKMWPFFAM-NH2
SMILES: CSCC[C@H](NC(=O)[C@H](C)NC(=O)[C@H](Cc1ccccc1)NC(=O)[C@H](Cc1ccccc1)NC(=O)[C@@H]1CCCN1C(=O)[C@H](Cc1c[nH]c2ccccc12)NC(=O)[C@H](CCSC)NC(=O)[C@H](CCCCN)NC(=O)[C@H](CCCNC(=N)N)NC(=O)[C@H](Cc1ccccc1)NC(=O)[C@@H](C)NC(=O)[C@H](CCC(N)=O)NC(=O)[C@H](Cc1ccccc1)NC(=O)[C@H](CC(=O)O)NC(=O)[C@H](CCCNC(=N)N)NC(=O)CNC(C)=O)C(N)=O
B2: peptide of SEQ ID NO: 52 (peptide)
peptide: cyclo(R[dA]FQAFRKMWPFFAM)
SMILES: CSCC[C@@H]1NC(=O)[C@H](C)NC(=O)[C@H](Cc2ccccc2)NC(=O)[C@H](Cc2ccccc2)NC(=O)[C@@H]2CCCN2C(=O)[C@H](Cc2c[nH]c3ccccc23)NC(=O)[C@H](CCSC)NC(=O)[C@H](CCCCN)NC(=O)[C@H](CCCNC(=N)N)NC(=O)[C@H](Cc2ccccc2)NC(=O)[C@H](C)NC(=O)[C@H](CCC(N)=O)NC(=O)[C@H](Cc2ccccc2)NC(=O)[C@@H](C)NC(=O)[C@H](CCCNC(=N)N)NC1=O
B3: peptide of SEQ ID NO: 54 (peptide)
peptide: cyclo(R[dA]FQAFRKMWPFFAM)
SMILES: CSCC[C@@H]1NC(=O)[C@H](C)NC(=O)[C@H](Cc2ccccc2)NC(=O)[C@H](Cc2ccccc2)NC(=O)[C@@H]2CCCN2C(=O)[C@H](Cc2c[nH]c3ccccc23)NC(=O)[C@H](CCSC)NC(=O)[C@H](CCCCN)NC(=O)[C@H](CCCNC(=N)N)NC(=O)[C@H](Cc2ccccc2)NC(=O)[C@H](C)NC(=O)[C@H](CCC(N)=O)NC(=O)[C@H](Cc2ccccc2)NC(=O)[C@@H](C)NC(=O)[C@H](CCCNC(=N)N)NC1=O
B4: peptide of SEQ ID NO: 40 (peptide)
peptide: Ac-GRDFQSFRKMW[dA]FFAM-NH2
SMILES: CSCC[C@H](NC(=O)[C@H](C)NC(=O)[C@H](Cc1ccccc1)NC(=O)[C@H](Cc1ccccc1)NC(=O)[C@@H](C)NC(=O)[C@H](Cc1c[nH]c2ccccc12)NC(=O)[C@H](CCSC)NC(=O)[C@H](CCCCN)NC(=O)[C@H](CCCNC(=N)N)NC(=O)[C@H](Cc1ccccc1)NC(=O)[C@H](CO)NC(=O)[C@H](CCC(N)=O)NC(=O)[C@H](Cc1ccccc1)NC(=O)[C@H](CC(=O)O)NC(=O)[C@H](CCCNC(=N)N)NC(=O)CNC(C)=O)C(N)=O
B5: peptide of SEQ ID NO: 53 (peptide)
peptide: cyclo(R[dA]FQAFRKMWPFFAM)
SMILES: CSCC[C@@H]1NC(=O)[C@H](C)NC(=O)[C@H](Cc2ccccc2)NC(=O)[C@H](Cc2ccccc2)NC(=O)[C@@H]2CCCN2C(=O)[C@H](Cc2c[nH]c3ccccc23)NC(=O)[C@H](CCSC)NC(=O)[C@H](CCCCN)NC(=O)[C@H](CCCNC(=N)N)NC(=O)[C@H](Cc2ccccc2)NC(=O)[C@H](C)NC(=O)[C@H](CCC(N)=O)NC(=O)[C@H](Cc2ccccc2)NC(=O)[C@@H](C)NC(=O)[C@H](CCCNC(=N)N)NC1=O
B6: peptide of SEQ ID NO: 43 (peptide)
peptide: Ac-GR[dA]FQ[dA]FRKMWPFFAM-NH2
SMILES: CSCC[C@H](NC(=O)[C@H](C)NC(=O)[C@H](Cc1ccccc1)NC(=O)[C@H](Cc1ccccc1)NC(=O)[C@@H]1CCCN1C(=O)[C@H](Cc1c[nH]c2ccccc12)NC(=O)[C@H](CCSC)NC(=O)[C@H](CCCCN)NC(=O)[C@H](CCCNC(=N)N)NC(=O)[C@H](Cc1ccccc1)NC(=O)[C@@H](C)NC(=O)[C@H](CCC(N)=O)NC(=O)[C@H](Cc1ccccc1)NC(=O)[C@@H](C)NC(=O)[C@H](CCCNC(=N)N)NC(=O)CNC(C)=O)C(N)=O
B7: peptide of SEQ ID NO: 38 (peptide)
peptide: Ac-GRDFQSFRKMWAFFA[dM]-NH2
SMILES: CSCC[C@H](NC(=O)[C@H](CCCCN)NC(=O)[C@H](CCCNC(=N)N)NC(=O)[C@H](Cc1ccccc1)NC(=O)[C@H](CO)NC(=O)[C@H](CCC(N)=O)NC(=O)[C@H](Cc1ccccc1)NC(=O)[C@H](CC(=O)O)NC(=O)[C@H](CCCNC(=N)N)NC(=O)CNC(C)=O)C(=O)N[C@@H](Cc1c[nH]c2ccccc12)C(=O)N[C@@H](C)C(=O)N[C@@H](Cc1ccccc1)C(=O)N[C@@H](Cc1ccccc1)C(=O)N[C@@H](C)C(=O)N[C@H](CCSC)C(N)=O
B8: peptide of SEQ ID NO: 49 (peptide)
peptide: RDFQSFRKMWPFFAM
modifications: head-to-tail cyclic: linker L is C(=O) between the N-terminal amino group of residue 1 and the alpha carbon of residue 15
B9: peptide of SEQ ID NO: 51 (peptide)
peptide: cyclo(R[dA]FQAFRKMWPFFAM)
SMILES: CSCC[C@@H]1NC(=O)[C@H](C)NC(=O)[C@H](Cc2ccccc2)NC(=O)[C@H](Cc2ccccc2)NC(=O)[C@@H]2CCCN2C(=O)[C@H](Cc2c[nH]c3ccccc23)NC(=O)[C@H](CCSC)NC(=O)[C@H](CCCCN)NC(=O)[C@H](CCCNC(=N)N)NC(=O)[C@H](Cc2ccccc2)NC(=O)[C@H](C)NC(=O)[C@H](CCC(N)=O)NC(=O)[C@H](Cc2ccccc2)NC(=O)[C@@H](C)NC(=O)[C@H](CCCNC(=N)N)NC1=O

The binders below were run against T1, Foxp3 in murine CD25+ Treg cells (assay: cell-based or functional assay).

Row | Binder | IC50 (µM) of inhibition of Treg activity, in vitro Treg suppression assay (murine Tconv + Treg, anti-CD3, [3H]-thymidine) [µM]
1 | Ac-GRAFQAFRKMWPFFAM-NH2 [peptide of SEQ ID NO: 41] | 1.9
2 | Ac-GRAFQSFRKMWPFFAM-NH2 [peptide of SEQ ID NO: 13] | 12.5

These binders were tested against human FOXP3 tagged with 6 histidines at the C terminus (human) (UniProt Q9BZS1) (assay: SPR (ProteOn XPR36), FOXP3-6His immobilized on GLM chip, peptide 1-20 µM injected; ratio to p60 (SEQ ID NO: 1)).
human FOXP3 tagged with 6 histidines at the C terminus (human), sequence (Q9BZS1 other isoform, or with tags, fused parts or gaps): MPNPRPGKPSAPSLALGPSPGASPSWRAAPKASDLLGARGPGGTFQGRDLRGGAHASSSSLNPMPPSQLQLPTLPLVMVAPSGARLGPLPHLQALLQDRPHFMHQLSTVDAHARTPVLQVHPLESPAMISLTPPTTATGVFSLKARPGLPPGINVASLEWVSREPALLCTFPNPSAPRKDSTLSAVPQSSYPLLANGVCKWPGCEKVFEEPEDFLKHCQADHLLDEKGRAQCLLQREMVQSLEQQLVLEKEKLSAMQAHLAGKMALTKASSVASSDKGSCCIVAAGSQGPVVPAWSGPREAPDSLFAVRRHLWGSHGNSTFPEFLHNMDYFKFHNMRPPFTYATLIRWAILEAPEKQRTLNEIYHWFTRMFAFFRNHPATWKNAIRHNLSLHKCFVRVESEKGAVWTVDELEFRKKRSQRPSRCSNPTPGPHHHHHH

Row | Binder | Ratio binding Peptide/p60 (fold change)
3 | RSFQSFRKMWPFFAM [peptide of SEQ ID NO: 7] | 1.4
4 | Ac-GRAFQAFRKMWPFFAM-NH2 [peptide of SEQ ID NO: 41] | 3.7
5 | RDFQSFRKMWVFFAM [peptide of SEQ ID NO: 33] | 1.3
6 | B1 | 3.3
7 | RDWQSFRKMWPFFAM [peptide of SEQ ID NO: 16] | 3.7
8 | B2 | 13
9 | RDFQYFRKMWPFFAM [peptide of SEQ ID NO: 24] | 4.6
10 | B3 | 25.3
11 | RDFQWFRKMWPFFAM [peptide of SEQ ID NO: 22] | 2.4
12 | Ac-GRAFQSFRKMWAFFAM-NH2 [peptide of SEQ ID NO: 44] | 3
13 | B4 | 2.2
14 | RYFQSFRKMWPFFAM [peptide of SEQ ID NO: 8] | 1.4
15 | RDFQSFRKMWYFFAM [peptide of SEQ ID NO: 35] | 1.3
16 | RDFQSFRKMWRFFAM [peptide of SEQ ID NO: 31] | 2.8
17 | RWFQSFRKMWPFFAM [peptide of SEQ ID NO: 9] | 1.4
18 | H-R[dA]FQSFRKMWPFFAM-OH [peptide of SEQ ID NO: 6] | 3.3
19 | B5 | 2.2
20 | RDFQSFRKMWNFFAM [peptide of SEQ ID NO: 32] | 1.4

Row | Binder | Ratio binding Peptide/p60 (fold change)
21 | RDFQSFRKMWKFFAM [peptide of SEQ ID NO: 37] | 4.1
22 | B6 | 4.9
23 | B7 | 1.1
24 | B8 | 5
25 | RDFQNFRKMWPFFAM [peptide of SEQ ID NO: 21] | 3.2
26 | H-RAFQAFRKMWPFFAM-OH [peptide of SEQ ID NO: 42] | 4.1
27 | RDFQSFRRMWPFFAM [peptide of SEQ ID NO: 29] | 1.4
28 | RDFQEFRKMWPFFAM [peptide of SEQ ID NO: 23] | 1.3
29 | RDYQSFRKMWPFFAM [peptide of SEQ ID NO: 17] | 3.3
30 | RDFQSFRHMWPFFAM [peptide of SEQ ID NO: 28] | 2.6
31 | RNFQSFRKMWPFFAM [peptide of SEQ ID NO: 11] | 1.4
32 | B9 | 21.4
33 | RKFQSFRKMWPFFAM [peptide of SEQ ID NO: 12] | 2.2
34 | RDFQRFRKMWPFFAM [peptide of SEQ ID NO: 20] | 3.7
35 | RDFQKFRKMWPFFAM [peptide of SEQ ID NO: 25] | 4
36 | Ac-GRAFQSFRKMWPFFAM-NH2 [peptide of SEQ ID NO: 13] | 3.2
37 | RDLQSFRKMWPFFAM [peptide of SEQ ID NO: 18] | 1.9
